This is an account of results in US20210032351A1 (XDCEXPLORER SHANGHAI, published 2021).

In test [1] the target is wild-type EGFR protein on the surfaces of A431 tumor cells and normal human primary hepatocytes (human) (UniProt P00533). As to the kind of experiment: FACS, normal human primary hepatocytes.
Test [2] shares this target. As to the kind of experiment: FACS, A431 tumor cells. On the technique in general: A flow cytometer gives signals particle by particle.
Test [3] has as its target human EGFRvIII protein, full length, on transfected cells (human) (UniProt P00533). As to the kind of experiment: FACS, CHO-K1-hEGFRvIII 1E10 cells.
The target is the same in test [4]. As to the kind of experiment: FACS, CHO-K1-hEGFRvIII 1D9 cells.
The target is the same in test [5]. Description: FACS, 293F-hEGFRvIII 1D11 cells.
The target is the same in test [6]. Description: FACS, U87MG-hEGFRvIII 2C6 cells.
Test [7] shares this target. As to the kind of experiment: FACS, U87MG-hEGFRvIII 1F9 cells.
Test [8] shares this target. As to the kind of experiment: FACS, 293F-hEGFRvIII 1F3 cells.
Test [9] shares this target. As to the kind of experiment: FACS, U87MG-hEGFRvIII 1B3 cells.
Test [10] has the same target. As to the kind of experiment: FACS, U87MG-hEGFRvIII 2G2 cells.
For test [11] the target is unchanged. As to the kind of experiment: FACS, U87MG-hEGFRvIII 1D1 cells.
Test [12] shares this target. Description: FACS, CHO-K1-hEGFRvIII 2B3 cells.
Test [13] shares this target. As to the kind of experiment: FACS, CHO-K1-hEGFRvIII 1G10 cells.
For test [14] the target is unchanged. Description: FACS, 293F-hEGFRvIII 1C10 cells.
Test [15] has the same target. As to the kind of experiment: FACS, U87MG-hEGFRvIII 2C3 cells.
For test [16] the target is unchanged. Description: FACS, CHO-K1-hEGFRvIII 2D11 cells.
Test [17] shares this target. Description: FACS, CHO-K1-hEGFRvIII 1E3 cells.
Test [18] concerns the target T1, human EGFRvIII-hFc protein (human, UniProt P00533 25-645).
T1 construct: extracellular domain; made in HEK293 cells, purified on protein A; also called immunogen A; hFc-tagged EGFRvIII protein; not shown: human IgG Fc fragment (hFc) of the pCpC vector
Description: ELISA, coated EGFRvIII-hFc, antibody 100 nM. The procedure, abridged: (§1)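 Read-out is A450 nm after TMB development (30 min, room temperature) stopped with 1.0N HCl. Plates carried EGFRvIII-hFc at 1.0 μg/mL and were incubated with purified antibody, then HRP secondary, each 2 h at 37° C.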
In general terms: In an ELISA, binding on a coated surface is turned into a signal by an enzyme label.

Test [19] concerns the target T1, human EGFRvIII-hFc protein. As to the kind of experiment: ELISA, coated EGFRvIII-hFc, antibody 0.01 nM. The procedure, abridged:
as §1

In test [20] the target is T1, human EGFRvIII-hFc protein. Description: ELISA, plate coated with human EGFRvIII-hFc, HRP secondary antibody, absorbance at 450 nm. The method, then:
The purified immunogen A (EGFRvIII-hFc) obtained in example 1 (for the preparation method, see step (I) in example 1) is diluted with PBS to a final concentration of 1.0 μg/mL, and then added to a 96-well ELISA plate at 100 μl/well. The plate is sealed with a plastic film and incubated at 4° C. overnight. The next day, the plate is washed twice with a plate washing solution [PBS+0.01% (v/v) Tween20], and added with a blocking solution [PBS+0.01% (v/v) Tween20+1% (w/w) BSA] for blocking 2 hours at room temperature. The blocking solution is discarded, and the purified EGFRvIII antibody obtained in example 2 is added at 100 μl/well. The plate is incubated for 2 hours at 37° C., and then washed 3 times with the plate washing solution [PBS+0.01% (v/v) Tween20]. The plate is added with an HRP (horseradish peroxidase) labeled secondary antibody (purchased from Sigma), incubated at 37° C. for 2 hours, and then washed 3 times with the plate washing solution [PBS+0.01% (v/v) Tween20]. The plate is added with 100 μl of TMB substrate/well, incubated for 30 minutes at room temperature, and then added with 100 μl of stopping solution (1.0N HCl)/well. A450 nm value is read using an ELISA plate reader (SpectraMax 384plus, purchased from Molecular Device), and the results are shown in FIG. 6 and table 10.

Test [21] has as its target T1, human EGFRvIII-hFc protein. As to the kind of experiment: ELISA, coated EGFRvIII-hFc, antibody 0.001 nM. The method in brief: as §1
Test [22] has as its target T1, human EGFRvIII-hFc protein. Description: ELISA, coated EGFRvIII-hFc, antibody 0.1 nM. The method in brief:
as §1

Test [23] has as its target T1, human EGFRvIII-hFc protein. Description: ELISA, coated EGFRvIII-hFc, antibody 1 nM. The method in brief:
as §1

The target of test [24] is T1, human EGFRvIII-hFc protein. Description: ELISA, coated EGFRvIII-hFc, antibody 10 nM. The procedure, abridged: as §1
Test [25] concerns the target T1, human EGFRvIII-hFc protein. As to the kind of experiment: ELISA, coated EGFRvIII-hFc, antibody 0.0001 nM. The procedure, abridged:
as §1

Test [26] deals with T2, human EGFRvIII protein, full length, on transfected cells (human, UniProt P00533 25-1210).
T2 construct: whole, on cells; stably transfected CHO-K1, U87MG and HEK293(F) cells; also called hEGFRvIII; mutant EGFRvIII protein
Description: FACS on CHOK-EGFRvIII cells.

The next test has as its target T3, pep11 (cysteine pairing not given here).
T3 peptide: TDHGSCVRACGADSYEK(Biotin)
As to the kind of experiment: peptide dot matrix ELISA.

Another test has as its target T4, pep17.
T4 peptide: VRACGADSYEMEEDGVK(Biotin)
As to the kind of experiment: peptide dot matrix ELISA.

A further test deals with T5, pep32 (cysteine pairing not given here).
T5 peptide: VRKCKKCEGPCRKVCNK(Biotin)
As to the kind of experiment: peptide dot matrix ELISA.

The next test has as its target T6, pep28 (cysteine pairing not given here).
T6 peptide: EEDGVRKCKKCEGPCRK(Biotin)
Description: peptide dot matrix ELISA.

Another test has as its target T7, pep18.
T7 peptide: RACGADSYEMEEDGVRK(Biotin)
As to the kind of experiment: peptide dot matrix ELISA.

The next test concerns the target T8, pep02.
T8 peptide: EEKKGNYVVTDHGSCVK(Biotin)
As to the kind of experiment: peptide dot matrix ELISA.

The next test deals with T9, pep31 (cysteine pairing not given here).
T9 peptide: GVRKCKKCEGPCRKVCK(Biotin)
As to the kind of experiment: peptide dot matrix ELISA.

Another test deals with T10, pep08 (cysteine pairing not given here).
T10 peptide: YVVTDHGSCVRACGADK(Biotin)
As to the kind of experiment: peptide dot matrix ELISA.

The next test has as its target T11, pep34 (cysteine pairing not given here).
T11 peptide: KCKKCEGPCRKVCNGIK(Biotin)
Description: peptide dot matrix ELISA.

The target in a further test is T12, pep24 (cysteine pairing not given here).
T12 peptide: SYEMEEDGVRKCKKCEK(Biotin)
Description: peptide dot matrix ELISA.

The target of the next test is T13, pep35 (cysteine pairing not given here).
T13 peptide: CKKCEGPCRKVCNGIGK(Biotin)
As to the kind of experiment: peptide dot matrix ELISA.

Another test addresses T14, pep16 (cysteine pairing not given here).
T14 peptide: CVRACGADSYEMEEDGK(Biotin)
Description: peptide dot matrix ELISA.

The next test addresses T15, pep23 (cysteine pairing not given here).
T15 peptide: DSYEMEEDGVRKCKKCK(Biotin)
As to the kind of experiment: peptide dot matrix ELISA.

A further test concerns the target T16, pep33 (cysteine pairing not given here).
T16 peptide: RKCKKCEGPCRKVCNGK(Biotin)
Description: peptide dot matrix ELISA.

The term EC50 (read off the curve) denotes the concentration giving half of the maximal effect. Higher therefore signals lower potency in that assay.

Changes are numbered by the printed parent chain. Ends that are not written are not given here. * marks the point of attachment. Biotin = O=C1N[C@H]2[C@H](CS[C@H]2CCCCC(=O)*)N1

Regarding Negative control hIgG (antibody), the mean fluorescence intensity (MFI) in [1] turned out to be 219 MFI; in test [2] it was 388 MFI.
Take “known EGFRvIII antibody (purchased from Absoluteantibody, #Ab00184-1.1)”: the cell mean fluorescence intensity in test [3] was 92; in test [4], 457; in [5], 388; in test [6] it was 178; in [7], 68; in test [8] it was 395. Moreover, the cell mean fluorescence intensity in test [9] is 66.9; in [10], 182; in test [11], 96.4; in test [12], 109; in test [13] it was 563; in test [14], 458. Besides, the results for the cell mean fluorescence intensity in test [15], in test [16] and in test [17] were 82.7, 77 and 42, respectively.

B1: Murine anti-43H6 (antibody, V domains shown)
VH: INAEYAGGPGLVKPSQSLSLTCTVTDYSITSDYAWNWIRQFPGNKLEWMGYISYSGNTNYNPSLKSRISITRDTSKNQFFLQLNSVTTEDTATYYCARLGRGFAYWGQGTLVTVSA
VL: DILMTQSPSSMSVSLGDTVSITCHASQDINSNIGWLQQKPGTSFKGLIYHGRNLEDGVPSRFSGSGSGEDYSLTISSLESEDFADYYCVQYAHFPPTFGAGTKLELK
notes: murine hybridoma antibody; also called 43H6A1
Take B1: the OD450 nm in test [18] was 3.85; in test [19], 0.25; in test [21], 0.11; in [22], 1.39; in test [23] it was 3.86; in [24], 3.87. This molecule registered an OD450 nm in test [25] of 0.09. For the same molecule, the “EC50 (read off the curve)” value in test [20] is approximately 0.02 nM.

B2: c75G7C6-4 (antibody, human IgG1, V domains shown)
VH: EVQLQQSGPELVKPGASVKIPCKASGYTFTDYNMDWVKQSHGKSLEWIGDINPNNGDTIYNQKFKGKATLTVDKSSSTAYMELRSLTSEDTAVYYCARGDYSGYYPVYYAMDYWGQGTSVTVSS
VL: ENVLTQSPAIMSASPGEKVTMTCRASSSVSSSYLHWYQQKSGASPKLWIFSTSNLAAGVPARFSGSGSGTSYSLTVSSVEAEDAATYYCQQYSGYPLTFGAGTKLELK
notes: chimeric, human IgG1 / kappa; DG of heavy chain CDR3 mutated to SG; also called DG/SG mutant
Regarding B2, the “fold decrease in binding ability compared to the wild-type chimeric antibody c75G7C6” value in test [26] stood at 2.5 fold.

B3: Chimeric antibody 75G7 (antibody, V domains shown)
VH: B2 VH with S102D
VL: B2 VL
notes: also called c75G7C6
In the case of B3, the ELISA signal in the test with pep11 turned out to be 0.08; with pep17, 0.05; in the test with pep32, 0.06; with pep28, 0.06; with pep18, 0.05; with pep02, 0.05. The ELISA signal is 0.06 in the test with pep31; 0.05 in the test with pep08; 0.06 in the test with pep34; 0.05 with pep24; 0.07 in the test with pep35; 0.05 in the test with pep16. For the same molecule, the figures for the ELISA signal in the test with pep23 and with pep33 were 0.05 and 0.07, respectively.
